From FireProtDB (doi:10.1038/12277)

B1: Ribonuclease HI, P0A7Y4 (parent)
chain: MLKQVEIFTDGSCLGNPGPGGYGAILRYRGREKTFSAGYTRTTNNRMELMAAIVALEALKEHCEVILSTDSQYVRQGITQWIHNWKKRGWKTADKKPVKNVDLWQRLDAALGQHQIKWEWVKGHAGHPENERCDELARAAAMNPTLEDTGYQVEV

Variants of: B1
Details: Escherichia coli (strain K12), pH 5.5, CD, Potassium phosphate 2 mM, KF 5 mM, reversible: yes, structure 2RN2, whole UniProt chain shown; for ddG of mutation (higher = less stable) / denaturant m value / unfolding free energy: 25 °C, Urea; for Tm / change of melting temperature, mutant - wild type (higher = more stable): Thermal

Q105G
ddG of mutation (higher = less stable): 2.2 kcal/mol | denaturant m value: 2.1 kcal/mol/M | unfolding free energy: 7.5 kcal/mol | Tm: 38.2 °C | change of melting temperature, mutant - wild type (higher = more stable): -9.6 °C

I53A
Tm: 35.7 °C | change of melting temperature, mutant - wild type (higher = more stable): -12.1 °C

R27A
ddG of mutation (higher = less stable): 2.2 kcal/mol | denaturant m value: 2 kcal/mol/M | unfolding free energy: 7.5 kcal/mol | Tm: 42.2 °C | change of melting temperature, mutant - wild type (higher = more stable): -5.6 °C

D10A
ddG of mutation (higher = less stable): -3.3 kcal/mol | denaturant m value: 2.1 kcal/mol/M | unfolding free energy: 13 kcal/mol | Tm: 62.6 °C | change of melting temperature, mutant - wild type (higher = more stable): 14.8 °C
